B1: Annexin A5, P08758 (parent)
chain: MAQVLRGTVTDFPGFDERADAETLRKAMKGLGTDEESILTLLTSRSNAQRQEISAAFKTLFGRDLLDDLKSELTGKFEKLIVALMKPSRLYDAYELKHALKGAGTNEKVLTEIIASRTPEELRAIKQVYEEEYGSSLEDDVVGDTSGYYQRMLVVLLQANRDPDAGIDEAQVEQDAQALFQAGELKWGTDEEKFITIFGTRSVSHLRKVFDKYMTISGFQIEETIDRETSGNLEQLLLAVVKSIRSIPAYLAETLYYAMKGAGTDDHTLIRVMVSRSEIDLFNIRKEFRKNFATSLYSMIKGDTSGDYKKALLLLCGEDD

Variants of: B1
Settings: Homo sapiens; pH 8; Thermal; DSC; Tris 50 mM; KCl 100 mM; reversible: no; structure 1AVR; whole UniProt chain shown
In the case of E17G, the Tm is reported as 52.8 °C, the “unfolding enthalpy (calorimetric)” value is reported as 164 kcal/mol and the “unfolding enthalpy (van 't Hoff)” value is reported as 173 kcal/mol.

Source: FireProtDB (doi:10.1021/bi962163z)
